The supplement of paper PMC10065799, “High-throughput profiling of sequence recognition by tyrosine kinases and SH2 domains using bacterial peptide display” (eLife, 2023)

Tests used:
[1] = biological target: Jak2 (UniProt O60674); assay: phosphorylation enrichment, bacterial display (enrichment ratio); higher = better substrate or ligand; peptides without Tyr show the background
[2] = biological target: Hck (UniProt P08631); assay: as above
[3] = biological target: FGFR1 (UniProt P11362); assay: as above
[4] = biological target: Fyn (UniProt P06241); assay: as above
[5] = system: c-Src; assay: as above
[6] = biological target: MERTK (UniProt Q12866); assay: as above
[7] = biological target: EPHB2 (UniProt P29323); assay: as above
[8] = biological target: Fes (UniProt P07332); assay: as above
[9] = system: c-Abl (mouse); assay: as above
[10] = system: Fer (mouse); assay: as above
[11] = biological target: FGFR3 (UniProt P22607); assay: as above
[12] = system: AncSZ; assay: as above
[13] = biological target: EPHB1 (UniProt P54762); assay: as above
[14] = biological target: c-Src SH2; assay: SH2 binding enrichment of the phosphorylated peptide, bacterial display (enrichment ratio); higher = better substrate or ligand; peptides without Tyr show the background
[15] = biological target: Grb2 SH2 (UniProt P62993); assay: as above
[16] = biological target: SHP2-C SH2; assay: as above
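Throughout, for SH2 binding enrichment of the phosphorylated peptide, bacterial display: peptide library displayed on the E. coli surface as eCPX fusions, selected cells deep-sequenced, score is each peptide's frequency after selection divided by its frequency in the input.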
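Throughout, for phosphorylation enrichment, bacterial display: 11-residue human phosphosite peptides and single-mutation variants displayed on the E. coli surface, counted by deep sequencing, each peptide's frequency after selection divided by its frequency in the unselected input library; frequency after pTyr selection over input frequency; kinase dosed for 20-30% of maximal phosphorylation in three min.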

Hck, sequence (P08631 whole entry, looked up): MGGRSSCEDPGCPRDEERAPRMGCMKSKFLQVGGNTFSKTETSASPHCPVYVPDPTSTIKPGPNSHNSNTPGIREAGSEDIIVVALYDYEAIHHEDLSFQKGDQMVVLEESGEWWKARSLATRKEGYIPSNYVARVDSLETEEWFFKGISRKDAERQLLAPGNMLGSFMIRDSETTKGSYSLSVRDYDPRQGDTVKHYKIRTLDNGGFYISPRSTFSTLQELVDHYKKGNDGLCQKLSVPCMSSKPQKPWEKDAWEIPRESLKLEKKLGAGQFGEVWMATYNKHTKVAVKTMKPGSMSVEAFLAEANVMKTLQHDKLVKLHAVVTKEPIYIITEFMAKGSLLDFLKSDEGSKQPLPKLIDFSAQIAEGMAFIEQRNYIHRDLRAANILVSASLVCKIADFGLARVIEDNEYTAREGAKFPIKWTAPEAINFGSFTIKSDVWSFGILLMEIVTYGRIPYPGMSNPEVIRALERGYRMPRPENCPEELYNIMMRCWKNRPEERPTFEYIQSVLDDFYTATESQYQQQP
FGFR1, sequence (P11362 whole entry, looked up): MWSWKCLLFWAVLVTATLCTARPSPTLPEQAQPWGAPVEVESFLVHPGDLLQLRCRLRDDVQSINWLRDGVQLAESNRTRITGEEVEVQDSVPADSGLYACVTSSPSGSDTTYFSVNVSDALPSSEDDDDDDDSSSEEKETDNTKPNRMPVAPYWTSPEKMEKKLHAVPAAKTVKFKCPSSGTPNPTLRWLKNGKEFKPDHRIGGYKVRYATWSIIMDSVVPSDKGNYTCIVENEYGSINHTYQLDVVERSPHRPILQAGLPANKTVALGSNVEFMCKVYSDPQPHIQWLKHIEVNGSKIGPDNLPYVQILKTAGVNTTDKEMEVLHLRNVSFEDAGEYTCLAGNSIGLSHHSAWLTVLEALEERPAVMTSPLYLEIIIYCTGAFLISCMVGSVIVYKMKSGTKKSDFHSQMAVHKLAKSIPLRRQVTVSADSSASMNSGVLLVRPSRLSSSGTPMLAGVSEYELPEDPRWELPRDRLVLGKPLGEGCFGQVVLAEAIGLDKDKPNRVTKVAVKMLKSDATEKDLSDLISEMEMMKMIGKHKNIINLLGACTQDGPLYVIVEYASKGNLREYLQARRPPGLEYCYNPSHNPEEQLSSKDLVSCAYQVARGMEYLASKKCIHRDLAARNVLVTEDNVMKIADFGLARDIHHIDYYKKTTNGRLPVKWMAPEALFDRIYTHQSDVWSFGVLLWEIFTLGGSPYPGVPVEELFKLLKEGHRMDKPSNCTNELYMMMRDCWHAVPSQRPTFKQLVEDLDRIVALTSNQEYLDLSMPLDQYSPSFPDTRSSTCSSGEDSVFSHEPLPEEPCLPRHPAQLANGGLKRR
Fes, sequence (P07332 whole entry, looked up): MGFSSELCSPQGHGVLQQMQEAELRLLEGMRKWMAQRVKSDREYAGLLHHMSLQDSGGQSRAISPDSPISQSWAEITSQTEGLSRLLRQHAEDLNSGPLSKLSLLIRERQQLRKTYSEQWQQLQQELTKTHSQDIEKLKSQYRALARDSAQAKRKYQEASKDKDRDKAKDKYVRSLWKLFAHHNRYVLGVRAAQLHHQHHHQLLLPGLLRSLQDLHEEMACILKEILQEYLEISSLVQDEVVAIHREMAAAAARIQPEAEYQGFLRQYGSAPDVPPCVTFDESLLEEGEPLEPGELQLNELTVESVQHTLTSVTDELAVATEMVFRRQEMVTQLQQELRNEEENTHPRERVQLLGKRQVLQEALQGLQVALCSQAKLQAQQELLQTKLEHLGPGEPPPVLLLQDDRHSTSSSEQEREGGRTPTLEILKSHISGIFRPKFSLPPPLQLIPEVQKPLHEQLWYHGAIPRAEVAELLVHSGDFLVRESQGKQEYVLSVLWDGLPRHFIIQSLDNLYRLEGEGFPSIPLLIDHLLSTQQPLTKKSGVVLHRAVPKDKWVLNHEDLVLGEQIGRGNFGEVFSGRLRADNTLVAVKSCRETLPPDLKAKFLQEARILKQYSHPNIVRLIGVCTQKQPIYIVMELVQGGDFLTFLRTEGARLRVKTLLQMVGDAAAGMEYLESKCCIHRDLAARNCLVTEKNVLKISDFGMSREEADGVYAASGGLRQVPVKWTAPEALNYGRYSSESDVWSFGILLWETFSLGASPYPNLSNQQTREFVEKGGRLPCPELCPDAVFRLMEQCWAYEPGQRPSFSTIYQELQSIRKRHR
EPHB2, sequence (P29323 whole entry, looked up): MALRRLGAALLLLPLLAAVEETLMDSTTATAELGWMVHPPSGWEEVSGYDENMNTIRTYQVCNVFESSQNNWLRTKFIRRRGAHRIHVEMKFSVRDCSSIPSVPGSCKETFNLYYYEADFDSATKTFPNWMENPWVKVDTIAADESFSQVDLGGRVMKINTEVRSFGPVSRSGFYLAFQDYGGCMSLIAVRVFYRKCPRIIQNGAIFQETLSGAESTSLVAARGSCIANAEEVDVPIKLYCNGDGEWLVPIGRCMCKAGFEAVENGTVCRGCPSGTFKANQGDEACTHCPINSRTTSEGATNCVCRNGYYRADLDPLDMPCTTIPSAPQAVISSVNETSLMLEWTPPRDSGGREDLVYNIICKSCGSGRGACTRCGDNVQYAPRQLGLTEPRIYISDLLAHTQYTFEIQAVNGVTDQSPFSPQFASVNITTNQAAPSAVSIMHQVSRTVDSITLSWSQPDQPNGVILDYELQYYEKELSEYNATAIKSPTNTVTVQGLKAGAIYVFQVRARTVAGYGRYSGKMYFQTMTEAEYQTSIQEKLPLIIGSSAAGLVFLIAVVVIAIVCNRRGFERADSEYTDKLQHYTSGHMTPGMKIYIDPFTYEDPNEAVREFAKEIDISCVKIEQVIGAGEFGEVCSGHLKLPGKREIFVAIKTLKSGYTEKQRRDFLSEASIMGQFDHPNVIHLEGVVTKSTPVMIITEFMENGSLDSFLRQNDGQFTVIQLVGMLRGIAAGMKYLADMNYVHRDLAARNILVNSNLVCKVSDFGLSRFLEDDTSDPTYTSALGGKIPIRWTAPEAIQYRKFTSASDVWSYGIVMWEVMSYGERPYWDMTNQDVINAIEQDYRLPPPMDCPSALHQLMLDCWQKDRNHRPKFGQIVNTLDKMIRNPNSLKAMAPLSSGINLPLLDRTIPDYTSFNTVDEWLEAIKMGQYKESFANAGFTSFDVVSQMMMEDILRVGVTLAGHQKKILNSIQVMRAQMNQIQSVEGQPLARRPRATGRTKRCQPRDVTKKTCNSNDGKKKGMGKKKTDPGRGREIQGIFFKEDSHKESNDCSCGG
MERTK, sequence (Q12866 whole entry, looked up): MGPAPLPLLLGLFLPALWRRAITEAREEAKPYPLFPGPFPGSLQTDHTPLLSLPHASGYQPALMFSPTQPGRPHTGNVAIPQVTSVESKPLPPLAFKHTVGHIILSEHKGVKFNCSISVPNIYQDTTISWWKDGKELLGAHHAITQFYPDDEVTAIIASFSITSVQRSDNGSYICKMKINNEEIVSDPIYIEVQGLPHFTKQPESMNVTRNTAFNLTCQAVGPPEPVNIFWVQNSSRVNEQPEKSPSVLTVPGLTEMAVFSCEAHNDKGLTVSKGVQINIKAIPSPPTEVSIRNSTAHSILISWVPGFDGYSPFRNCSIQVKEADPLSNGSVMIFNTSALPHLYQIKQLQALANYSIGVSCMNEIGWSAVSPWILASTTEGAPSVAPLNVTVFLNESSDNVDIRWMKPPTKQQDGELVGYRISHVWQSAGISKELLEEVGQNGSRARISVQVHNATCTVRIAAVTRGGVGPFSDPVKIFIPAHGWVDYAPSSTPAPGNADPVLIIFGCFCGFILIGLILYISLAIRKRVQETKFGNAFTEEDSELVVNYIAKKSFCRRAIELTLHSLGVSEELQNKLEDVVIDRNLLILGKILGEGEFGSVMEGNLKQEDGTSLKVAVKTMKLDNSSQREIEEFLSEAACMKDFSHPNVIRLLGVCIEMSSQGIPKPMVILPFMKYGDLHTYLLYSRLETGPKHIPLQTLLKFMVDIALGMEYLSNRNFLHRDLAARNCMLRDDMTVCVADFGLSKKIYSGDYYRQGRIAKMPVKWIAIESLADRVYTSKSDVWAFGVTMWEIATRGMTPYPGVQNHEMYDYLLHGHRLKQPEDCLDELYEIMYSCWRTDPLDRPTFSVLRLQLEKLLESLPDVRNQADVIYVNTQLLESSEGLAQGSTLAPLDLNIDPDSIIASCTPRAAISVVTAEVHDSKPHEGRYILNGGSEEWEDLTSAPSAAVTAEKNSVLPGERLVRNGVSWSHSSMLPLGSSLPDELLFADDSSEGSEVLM
Fyn, sequence (P06241 whole entry, looked up): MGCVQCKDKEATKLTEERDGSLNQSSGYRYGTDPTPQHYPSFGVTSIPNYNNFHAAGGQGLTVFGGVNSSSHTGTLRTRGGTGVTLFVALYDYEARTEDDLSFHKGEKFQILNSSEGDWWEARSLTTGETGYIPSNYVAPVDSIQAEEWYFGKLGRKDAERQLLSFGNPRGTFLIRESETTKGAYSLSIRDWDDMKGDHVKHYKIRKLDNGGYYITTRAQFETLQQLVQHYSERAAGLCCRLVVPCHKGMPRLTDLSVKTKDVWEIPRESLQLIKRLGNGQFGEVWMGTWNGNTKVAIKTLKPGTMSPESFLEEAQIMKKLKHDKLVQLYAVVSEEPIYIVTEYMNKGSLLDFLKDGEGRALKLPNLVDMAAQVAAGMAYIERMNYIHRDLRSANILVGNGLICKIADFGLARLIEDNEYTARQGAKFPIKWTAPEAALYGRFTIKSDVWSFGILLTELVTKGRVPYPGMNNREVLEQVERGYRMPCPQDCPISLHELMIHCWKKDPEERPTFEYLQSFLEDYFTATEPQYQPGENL
Grb2 SH2, sequence (P62993 whole entry, looked up): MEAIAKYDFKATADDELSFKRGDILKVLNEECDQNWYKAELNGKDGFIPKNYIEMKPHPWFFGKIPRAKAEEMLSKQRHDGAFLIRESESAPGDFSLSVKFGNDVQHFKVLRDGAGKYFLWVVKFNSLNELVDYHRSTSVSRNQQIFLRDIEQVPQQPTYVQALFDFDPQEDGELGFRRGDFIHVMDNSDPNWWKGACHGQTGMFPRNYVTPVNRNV

Sequence	phosphorylation enrichment [1]	phosphorylation enrichment [2]	phosphorylation enrichment [3]	phosphorylation enrichment [4]	phosphorylation enrichment [5]	phosphorylation enrichment [6]	phosphorylation enrichment [7]	phosphorylation enrichment [8]	phosphorylation enrichment [9]	phosphorylation enrichment [10]	phosphorylation enrichment [11]	phosphorylation enrichment [12]	phosphorylation enrichment [13]	SH2 binding enrichment [14]	SH2 binding enrichment [15]	SH2 binding enrichment [16]
SEPDLYFDPRG [PKP1_Y160_C161Y_YF]	3.41	9.33	9.25	4.59	4.46	4.69	11.4	1.14	2.71	0.841	6.9	2.86	13.1	0.492	0.9	0.741
RPCVVYGGADI [DDX3X_Y301]	0.668	1.12	0.715	1.07	1.44	0.642	0.543	1.02	0.703	0.653	0.735	1	0.901	0.6	0.823	0.773
RRIHSYRGHLW [VHL_Y112]	4.65	2.59	2.16	1.91	3.66	2.69	1.46	2.9	3.28	1.47	1.93	2.9	2.21	0.392	0.799	0.641
VKANTYENYWP [GATM_Y100_K102N]	0.994	1.65	1.17	2.59	3.07	2.41	7.05	0.81	0.801	1.2	0.818	0.893	7.05	3.55	13.2	1.9
VFSATYHPDHW [EFCAB12_Y544_P541S_YF]	0.807	0.466	0.548	0.472	0.761	0.492	0.519	0.785	0.676	0.55	0.614	0.739	0.518	0.565	0.834	0.699
SSREGYVSHHN [FAM83B_Y433]	0.48	0.354	0.443	0.457	0.399	0.453	0.321	0.502	0.445	0.326	0.464	0.548	0.345	0.449	0.76	0.659
SFGESYDNSKS [MAN1B1_Y60_N59S]	0.939	0.482	0.493	0.466	0.508	0.502	0.508	0.953	0.747	0.433	0.595	0.813	0.474	0.437	0.928	0.568
CRAVKYLQMVG [AVPR2_Y117]	0.619	0.504	0.499	0.405	0.401	0.379	0.44	0.739	0.522	0.443	0.574	0.711	0.608	0.521	0.964	1.24
KELSSYKHLTL [SLIT2_Y776_N775S]	0.491	0.445	0.393	0.427	0.451	0.404	0.38	0.53	0.511	0.497	0.406	0.556	0.315	0.481	0.757	0.497
QGLRLYRSHLA [BTK_Y617_P619S]	0.75	0.38	0.552	0.571	0.51	0.417	0.408	1.04	0.801	0.527	0.5	0.935	0.718	1.03	1.21	0.888
AIYEGYALPHA [ACTC1_Y171_P166A]	0.789	13.7	0.761	15.9	11.3	13.8	30.1	1.37	18.1	22.6	0.773	1.77	20.8	2.48	0.792	0.726
RPAPQYPHQVP [ADAM12_Y895]	1.36	0.582	0.608	0.715	0.819	0.718	0.463	1.02	1.01	0.685	1.03	1.3	0.572	0.647	1.06	0.687
NVADHYRVYKP [ATP6V0D2_Y271_G272R]	0.561	0.384	0.489	0.501	0.412	0.426	0.574	0.767	0.703	0.433	0.479	0.721	0.54	0.469	0.619	0.517
CNPLCYPTIMI [OR6K6_Y160_R159C]	0.721	0.442	1.71	0.408	0.416	0.917	0.524	0.821	0.596	1.37	0.828	0.867	0.518	0.42	0.622	0.617
VNCHQYDGLVG [ATP2A2_Y407_E412G]	0.736	0.502	0.559	0.48	0.559	0.451	0.546	0.847	0.684	0.518	0.673	0.931	0.433	11.1	0.785	0.686
KFEDVYVRICL [B3GALNT1_Y269_G271R]	1.28	0.479	0.512	0.452	0.545	0.436	0.582	1.38	1.03	0.593	0.926	1.64	0.655	0.472	0.816	0.758
NNIDFYKKTTN [FGFR2_Y657_YF]	0.722	0.435	0.338	0.393	0.422	0.364	0.397	0.695	0.498	0.388	0.467	0.637	0.639	0.515	0.729	0.45

Sequence	phosphorylation enrichment [1]	phosphorylation enrichment [2]	phosphorylation enrichment [3]	phosphorylation enrichment [4]	phosphorylation enrichment [5]	phosphorylation enrichment [6]	phosphorylation enrichment [7]	phosphorylation enrichment [8]	phosphorylation enrichment [9]	phosphorylation enrichment [10]	phosphorylation enrichment [11]	phosphorylation enrichment [12]	phosphorylation enrichment [13]	SH2 binding enrichment [14]	SH2 binding enrichment [15]	SH2 binding enrichment [16]
LIHLHYIRKDY [BBS4_Y43]	0.857	0.444	0.517	0.548	0.393	0.377	0.63	1.14	0.632	0.447	0.763	1.21	0.602	1.71	1.69	1.88
TEDAEYDVQSK [PTCHD3_Y335_P333A]	1.07	0.591	0.515	0.539	0.535	0.492	0.609	1.14	0.848	0.606	0.689	1.38	0.611	0.644	1.01	0.698
RGGDSYGGPPR [RBMX_Y190_R187G]	0.43	0.656	0.454	0.524	0.592	0.586	0.5	0.848	0.735	0.441	0.58	0.498	0.399	0.75	1.96	0.798
DKGTLYIVEQI [PLBD1_Y375]	1.03	0.413	0.423	0.492	0.383	0.355	0.525	1.09	0.737	0.463	0.703	0.985	0.579	0.413	0.711	0.88
FPKDVYVDSKD [NDUFAF4_Y69_L65P]	0.769	0.444	0.588	0.409	0.416	0.377	0.36	0.839	0.543	0.367	0.59	0.868	0.38	0.542	1.13	0.821
EKAEVYGSENE [RIOK2_Y348]	0.911	0.464	0.455	0.566	0.483	0.445	0.52	1	0.609	0.457	0.625	1.11	0.464	0.618	0.825	0.567
QADVVYVNTQL [MERTK_Y872_I871V]	0.728	0.729	0.88	0.729	0.738	0.372	1.17	1.8	0.631	3.51	0.648	0.822	0.66	0.718	4.29	1.43
GHLFACDWISI [BEST1_Y227_Y227C_YF]	0.711	0.469	0.613	0.45	0.386	0.396	0.522	1.01	0.531	0.487	0.639	0.937	0.408	0.749	0.945	0.806
SVTCTYTPALN [TP53_Y126_S127T]	1.24	0.511	0.5	0.49	0.455	0.404	0.639	1.29	0.88	0.478	0.811	1.43	0.633	0.422	0.698	0.574
SLIDMYSEVLA [OPA1_Y268_D273A]	0.925	0.873	1.12	0.959	1.61	0.615	0.869	1.03	0.539	0.891	0.832	1.24	0.766	0.553	0.966	0.762
RPPFTYATLIH [FOXP3_Y342_R347H]	0.933	2.06	0.641	1.68	3.31	1.26	0.753	1.22	0.922	0.766	1.16	1.07	1.87	1.98	1.08	32.6
KTDKKYLMIEE [BAG3_Y451]	0.96	0.516	0.463	0.477	0.532	0.424	0.635	1.11	0.807	0.647	0.746	0.867	0.436	0.473	0.762	0.573
SLESAYPEGSQ [TTF1_Y357]	0.712	0.593	0.61	0.539	0.406	0.366	0.574	0.968	0.601	0.457	0.629	0.877	0.463	0.522	0.861	0.814
GDAMLYFPSVS [GPR143_Y177_A173D_YF]	1.92	0.692	0.801	0.55	0.746	0.726	0.446	0.823	0.674	0.521	0.98	0.721	0.511	0.528	0.744	0.632
EKESCYILHSS [PATJ_Y783_E779K]	0.936	0.497	0.572	0.549	0.595	0.533	0.519	1.09	0.707	0.623	0.77	1.28	0.531	0.719	0.959	0.694
SGFESYGSSSY [RPA2_Y9]	0.821	0.474	0.368	0.44	0.481	0.382	0.478	0.765	0.718	0.403	0.462	0.582	0.341	0.541	0.672	0.708
